# Test system: REV-ERBβ LBD
# Experiment: DSSO chemical cross-linking, SDS-PAGE
# Type: binding, human
# Conditions: 4 μM LBD ± heme with 2 μM RID, 600 μM DSSO, 25°C, 45 min
# Procedure: To further support this stoichiometry, we performed chemical cross-linking analysis of apo or heme-bound LBD ± RID using DSSO (disuccinimidyl sulfoxide), a cross-linker that cross-links lysine residues as well as serine, threonine, and tyrosine residues (fig. S9, A and B).
# Apo or heme-bound REV-ERBβ LBD and NCoR RID protein samples were cross-linked in Hepes gel filtration buffer [25 mM Hepes (pH 7.5) at room temperature, 50 mM NaCl, and 0.5 mM TCEP]. Non–cross-linked negative controls were generated using the same procedure without the addition of DSSO (Thermo Fisher Scientific). Samples included 4 μM apo LBD with or without 2 μM RID and 4 μM heme-bound LBD with or without 2 μM RID; complexes were preincubated 1 hour on ice. Reactions were initiated by spiking DSSO in DMSO at a final concentration of 600 μM in 50-μl solutions. The final molar ratio of cross-linker:protein was 100:1. The reactions were incubated at 25°C for 45 min before being quenched by the addition of tris (pH 8.0) to a final concentration of 50 mM. Each cross-link reaction was done in triplicate, and the reaction replicates were pooled after quenching. Samples (10 μl) were loaded for SDS-PAGE analysis with Coomassie staining to confirm the presence of cross-linked protein. […]
molecule,measurement,value
"WT RID: mouse NCoR RID (residues 1942 to 2208 in the X50 splice variant) (protein, UniProt Q60974 1942-2208, looked up, fragment, X50 splice variant) TITAANFIDVIITRQIASDKDARERGSQSSDSSSSLSSHRYETASDAIEVISPASSPAPPQEKPQAYQPDMVKANQAENESTRQYEGPLHHYRSQQESPSPQQQPPLPPSSQSEGMGQVPRTHRLITLADHICQIITQDFARNQVPSQASTSTFQTSPSALSSTPVRTKTSSRYSPESQSQTVLHPRPGPRVSPENLVDKSRGSRPGKSPERSHIPSEPYEPISPPQGPAVHEKQDSMLLLSQRGVDPAEQRSDSRSPGSISYLPSF",LBD:RID complexes by cross-linking SDS-PAGE,two bands with molecular weights consistent with 1:1 and 2:1 LBD:RID complexes

# Source: paper PMC7840129, “Structural basis for heme-dependent NCoR binding to the transcriptional repressor REV-ERBβ” (Science Advances, 2021)
